Substrate in data set [1]: COc1ccccc1O
Put plainly: purified protein. The note with it: 50 mM sodium tartrate.

Substrate in data set [2]: CCn1c(=NN=c2sc3cc(S(=O)(=O)O)ccc3n2CC)sc2cc(S(=O)(=O)O)ccc21
As to the kind of experiment: peroxidase oxidation, spectrophotometric; nonlinear fit. As to conditions: pH 3, 25 °C, 50 mM sodium tartrate, co-substrate H2O2. The data set is classed as biochemical, Irpex lacteus. The text has this:
(§1) peroxidase oxidation, spectrophotometric; nonlinear fit on IlDyP2

Substrate in data set [3]: COc1cccc(OC)c1O
The description is as above. The data set is classed as biochemical, Irpex lacteus. The note with it: pH 3, 25 °C, 50 mM sodium tartrate, co-substrate H2O2.
Description: as §1

Substrate in data set [4]: CCn1c(=NN=c2sc3cc(S(=O)(=O)O)ccc3n2CC)sc2cc(S(=O)(=O)O)ccc21
The description is as above. It counts as biochemical, Irpex lacteus. The note with it: pH 4, 25 °C, 50 mM sodium tartrate, co-substrate H2O2. The text has this:
(§2) peroxidase oxidation, spectrophotometric; nonlinear fit on IlDyP1

Substrate in data set [5]: COc1cccc(OC)c1O
The description is as above. It counts as biochemical, Irpex lacteus. The note with it: pH 4, 25 °C, 50 mM sodium tartrate, co-substrate H2O2.
Description: as §2

Where [6] appears, read: pH 3, 25 °C, co-substrate H2O2, pH 3.0.
Setting [7] is: pH 4, 25 °C, co-substrate H2O2, pH 4.0.

From paper PMC6223037, “Dye-decolorizing peroxidases in Irpex lacteus combining the catalytic properties of heme peroxidases and laccase play important roles in ligninolytic system” (Biotechnology for Biofuels, 2018) come the findings set out here.

B1: IlDyP2 (Irpex lacteus) (protein)
chain: YHVKRARSSPLIGSFPGQPPLPTIAEVQSSSAGNDSLPFENIQGDILVGMKKDKEKFVFFHINNATTFKSFLKTYAPANITSVQTIIGPASGQPQAFVNLAFSHTGFGALGVADDLQDTAFTAGQFADAPSFGDDTSTWEEAFKGTNVDGVFLIGSDDVTTTNQYRDDLKAKLGDAWTVLLDLDSAARPGAEKGHEHFGYLDGISNPTIPGFGTPFPGQAVVDSGVIFAGRTNDPVTNRPSWALDGSFLVFRKLKQLVPEFHKWTLDNALQNQAGNLTVEEGALLLGSRMFGRWNSGAPIDLTPDVDDPTLGNDPQRNNDFNYIHPGEDLTTDETRCPFTAHVRKTNPRDLEAQGLIPDLFHAIRAGTPYGPEVTDAESNSNTTSIDRGLAFVEYQSVISNGFRFQQLNWANNANFPFNKSEPLGLDPVIGQGTRQTFGLDPRNASDSLTIPQIIISNGGEYFFSPSITALVEHFGA
Turning to B1, in data set [1] (setting [6]), the Michaelis constant (Km) (commonly the substrate concentration at which the rate is half of its maximum) stood at 229.1 ± 15.9 µM; the kcat (in general, the number of substrate molecules converted per active site and unit of time at saturation) came out at 49.7 s⁻¹; the specificity constant (kcat/Km) (as a rule, the turnover number divided by the Michaelis constant) worked out at 220000 M⁻¹ s⁻¹. In data set [2], the Km was determined as 125.0 ± 1.4 µM, the catalytic constant (kcat) came to 396 s⁻¹ and the kcat/Km came out at 3.2e+06 M⁻¹ s⁻¹. Further, in data set [3], the Km was determined as 1631.7 ± 10.9 µM, the turnover number (kcat) came out at 561 ± 19.3 s⁻¹ and the kcat/Km was determined as 340000 ± 20000 M⁻¹ s⁻¹.

B2: IlDyP1 (Irpex lacteus) (protein)
chain: YHVKRARTTSLLGSFPGQGALPTVAQVQSTSSGNDSLPLENIQGDILVGMKKQKEQFVFFHINNATTFKKVLKTYAPANITSIQTLLSAPSAQPLAFVNLAFSQSGATALGVTDDLGDSFFSAGQFADASALGDDTSNWDSTFTGTDVHGVFLIGSDETSFVEQYQSDLEAKLGDAWTVSLTIASAARPGDEAGHEHFGYLDGISNPTITGFGTALPGQSVVDPGIILAGRTGDTVSRPSWALDGSFLVFRKLKQLVPEFNKWTLANAIQNASGNLTAQEGADLLGSRMFGRWKSGAPIDLSPDVDDASLGTDPQRNNNFNYTHAGSDITSDESRCPFSAHIRKTNPRDLESVIGHANHAIRAGTPYGPELTDDESSSGTTSTDRGLAFVEYQSNIGNGFRTQQEVWANAAAFPFGKTESIGLDPVIGQGDRTTYGLNAQNVTESYSVPSFVISNGGEYFFSPSITALVETFAA
B2: the Km in data set [1] (setting [7]) came to 592.1 ± 53.0 µM; in data set [4], 693.1 ± 8.5 µM; in data set [5], 892.7 ± 81.5 µM. In addition, the kcat was 49.2 s⁻¹ in data set [1] (setting [7]), 356 ± 11.2 s⁻¹ in data set [4] and 199 ± 12.6 s⁻¹ in data set [5]. The kcat/Km in data set [1] (setting [7]) is 83000 M⁻¹ s⁻¹; in data set [4], 510000 ± 10000 M⁻¹ s⁻¹; in data set [5] it was 220000 ± 10000 M⁻¹ s⁻¹.
